Source: patent publication US20110160439A1 (H LUNDBECK A S, published 2011)
Residue numbers refer to the chain shown, from its start. Where no end group is shown, it is not given here.

T1: Soluble Sortilin (sSortilin), luminal domain of human Sortilin fused C-terminally to His6 (human, UniProt Q99523 78-755)
T1 construct: Expressed in CHO-K1 cells; The propeptide is removed in the mature receptor; also called wt sSortilin; wtSortilin
T1 sequence: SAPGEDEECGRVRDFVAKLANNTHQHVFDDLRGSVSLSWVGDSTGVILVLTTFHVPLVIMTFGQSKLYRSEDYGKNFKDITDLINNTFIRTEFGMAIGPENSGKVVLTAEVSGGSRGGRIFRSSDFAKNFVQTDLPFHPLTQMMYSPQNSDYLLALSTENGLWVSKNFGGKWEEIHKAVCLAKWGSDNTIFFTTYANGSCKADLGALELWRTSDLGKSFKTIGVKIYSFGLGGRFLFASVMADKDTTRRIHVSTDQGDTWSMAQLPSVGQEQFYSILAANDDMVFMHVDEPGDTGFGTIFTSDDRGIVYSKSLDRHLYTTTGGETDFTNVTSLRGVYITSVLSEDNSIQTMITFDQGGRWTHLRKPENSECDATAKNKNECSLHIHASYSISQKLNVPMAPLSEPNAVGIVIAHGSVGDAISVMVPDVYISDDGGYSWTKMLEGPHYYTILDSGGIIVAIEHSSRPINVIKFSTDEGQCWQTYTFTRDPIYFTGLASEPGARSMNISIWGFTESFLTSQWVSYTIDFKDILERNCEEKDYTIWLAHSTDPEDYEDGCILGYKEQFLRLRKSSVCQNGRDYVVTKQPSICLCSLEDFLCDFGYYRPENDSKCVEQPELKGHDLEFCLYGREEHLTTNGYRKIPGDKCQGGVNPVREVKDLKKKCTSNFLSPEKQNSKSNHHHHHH

T2: sSortilin S316E mutant (human, UniProt Q99523 78-755)
T2 sequence: T1 sequence with S239E

B1: Propeptide of Nerve Growth Factor (NGFpro), E. coli-expressed, His6 tag removed by TEV (ligand)
chain: EPHSESNVPAGHTIPQVHWTKLQHSLDTALRRARSAPAAAIAARVAGQTRNITVDPRLFKKRRLRSPRVLFSTQPPREAADTQDLDFEVGGAAPFNRTHRSKR
notes: also called pro-domain of Nerve Growth Factor; NGF prodomain
B2: GST-tagged Sortilin propeptide (other)
chain: QDRLDAPPPPAAPLPRWSGPIGVSWGLRAAAAGGAFPRGGRWRR
modifications: also: GST tag, order and linker not given here
notes: also called GST-Sort-pro; (GST)Sort-pro; not shown: glutathione S-transferase (GST) tag
B3: Mature BDNF (ligand)
chain: HSDPARRGELSVCDSISEWVTAADKKTAVDMSGGTVTVLEKVPVSKGQLKQYFYETKCNPMGYTKEGCRGIDKRHWNSQCRTTQSYVRALTMDSKKRIGWRFIRIDTSCVCTLTIKRGR

Key:
[1] = biological target: T1, Soluble Sortilin (sSortilin), luminal …; experiment: SPR (BIAcore 3000), sSortilin immobilised on CM5 chip
Procedure: All measurements were performed on a BIAcore 3000 instrument (Biacore Sweden) maintained at 20° C. A continuous flow of buffer F (10 mM HEPES pH=7.4, 150 mM (NH₄)₂SO₄, 1.5 mM CaCl₂, 1.5 mM EGTA and 0.005% Tween-20) was passed over the CM5 chip sensor surface at 5 μl/min.

sSortilin S316E mutant = biological target: T2, sSortilin S316E mutant; experiment: SPR, mutant sSortilin immobilised
Procedure: (§1) The receptors were immobilized at similar concentrations (0.06 pM/mm²) and binding was analyzed by SPR.
(§2) Surface plasmon resonance (SPR) measurements were performed on a BIAcore 2000 instrument (Biacore Sweden) equipped with CM5 sensor chips maintained at 20° C. A continuous flow of HBS buffer (10 mM HEPES pH 7.4, 3.4 mM EDTA, 150 mM NaCl, 0.005% surfactant P20) passing over the sensor surface was maintained at 5 μl/min. The carboxylated dextran matrix of the sensor chip flow cells 1-3 was activated by the injection of a solution containing 0.2 M N-ethyl-N-(3 dimethylamino-propyl)carbodiimide and 0.05MN-hydroxysuccimide in water. A sortilin solution (320 μl, 5 μg/ml in 10 mM sodium acetate pH 4.0) was then injected over flow cells 1 and 2 at a flow rate of 15 μl/min. Remaining binding sites in all three flow cells were blocked by injection (5 μl/min) of 70 μl of 1 M ethanolamine pH 8.5. […] Screening of the samples was performed by injecting aliquots of 50 μl, at concentrations of 0.1-8 μM, through all flow cells with a flow rate of 5 μl/min. Unless otherwise stated, the samples were dissolved in 10 mM HEPES pH 7.4, 150 mM NaCl, 1.5 mM CaCl2, 1 mM EGTA, 0.005% surfactant P20. Sample buffer was also used as running buffer. […]

[2] = biological target: T1, Soluble Sortilin (sSortilin), luminal …; experiment: SPR, wt sSortilin immobilised
Procedure: as §1, §2

Binder | Kd [1] | binding result (sSortilin S316E mutant) | binding result [2]
B1 | ~10 nM | – | –
B2 | – | no binding | –
B3 | – | binds | binds
